System: MS2 coat protein
Assay: apparent KD of MS2 coat protein; designed switch direction (-1 OFF switch, 1 ON switch): -1; higher = weaker reporter binding
In short: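 Normalised cluster fluorescence was curve-fitted, and each design's median over clusters is its apparent KD. Before this, SNAP-549-labelled MS2 coat protein was titrated from 0.7 or 1.5 nM, doubling to 3 µM, over RNA switches transcribed on Illumina chips by stalled E. coli RNA polymerase. Titrations had no input, 200 uM small-molecule ligand, or an oligonucleotide input, and steps lasted 0.8–1.5 h (lowest) to 10–20 min (highest).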

[1] = input ligand: microRNA oligo, concentration not stated
[2] = Eterna round: R95, input ligand: FMN 200 uM
[3] = Eterna round: R95, input ligand: microRNA oligo, concentration not stated
[4] = Eterna round: R95, input ligand: none

Row | Sequence | apparent KD of MS2 coat protein (input ligand: FMN 200 uM) | apparent KD of MS2 coat protein [1] | apparent KD of MS2 coat protein (input ligand: none) | apparent KD of MS2 coat protein [2] | apparent KD of MS2 coat protein [3] | apparent KD of MS2 coat protein [4]
1 | AACAAAAGCGUAGGAUAUGACUGGGCUCAUGCCUAACAUAACUACAAACAUGAGGAUCACCCAUGUCAGAAGGACGAAUAAAAU [Isesbequti] (Eterna round: R96, puzzle: Exclusion NG 2) | 87.1 nM | 57.5 nM | 72 nM |  |  | 
2 | AACAAGCUUUUAAGAUGAAAGAUAGUAGGUAGCUCCUUUACAUGAGGAUCACCCAUGUUUGUGUAGCUCGAUCUUAU [JR_SV3TOV2_Sub076] (puzzle: Sensor v3, turn-off variant 2) |  |  |  | 12.3 nM | 37.4 nM | 11.5 nM
3 | AACACUGUAGGAUAUCAUGAACUGGACUUGAGGAUCACCCAAGUGUAUCCUGGAGUGCCGUGAGAAGGACGGAAAA [Erzalelaan] (Eterna round: R97, puzzle: Exclusion 5) | 56.5 nM |  | 46.9 nM |  |  | 
4 | AACAGUACAGGAUAUACAUGAGGAUCACCCAUGUGAGAAACCACUGGCGUACCAGAAAGUAGAAGGGUACUGGA [Moding Maslow Revisited (73) 29] (Eterna round: R96, puzzle: Exclusion 3) | 307 nM | 160 nM | 146 nM |  |  | 
5 | AACCAUGAAGGAUAUGACUUAACGAACAUGAGGAUCACCCAUGUGACCGAGCAGUGUUGAUCAGAAGGUUAAGGUG [Rier] (puzzle: Exclusion 5) |  |  |  | 101 nM | 83.7 nM | 139 nM
6 | AACCCUUGUGUUAGGAUAUGUCACUACCAUAUGCGACAGAAGGAACAUGAGGAUCACCCAUGUGAGUUAGCCAA [Quesveququ] (puzzle: Brourd's mod of Exclusion 4) |  |  |  |  | 36 nM | 
7 | AACCUGAGGCAAAGCUUUAGGUGUACAUGAGGAUCACCCAUGUAGGAUAUGGUAGGCAAAGCUUACCAGAAGGACAUAAAGGUU [Mat - Exclusion NG 3 - Mod of JL - D45] (Eterna round: R96, puzzle: Exclusion NG 3) | 81.4 nM | 36.4 nM | 47.7 nM |  |  | 
8 | AACCUGAGGCUUUGCUUUAGGUGUACAUGAGGAUCACCCAUGUAGGAUAUGGUAGGCUUUGCUUACCAGAAGGACAUGUUAAUU [JL ENG3 1.11] (Eterna round: R96, puzzle: Exclusion NG 3) | 201 nM | 48.9 nM | 47.1 nM |  |  | 
9 | AACCUGAGGCUUUGCUUUAGGUGUACAUGAGGAUCACCCAUGUAGGAUAUGGUAGGCUUUGCUUACCAGAAGGACAUUUAGGUU [JL ENG3 1.15] (Eterna round: R96, puzzle: Exclusion NG 3) | 110 nM | 33.6 nM | 43 nM |  |  | 
10 | AACGACUGAGGAUAUACAUGAGGAUCACCCAUGUGUUGAAAUACGUGCUUGGUUAACUGUAGAAGGCAGAAAAU [Isxeen] (puzzle: Exclusion 3) |  |  |  | 21.9 nM | 12.8 nM | 14 nM
11 | AACUAGGCAGGAUAUACAUGAGGAUCACCCAUGUAAAUUUUUCGUUUAACUUGAAUGUGUAGAAGGGCCAUAAA [Ex3 #52] (Eterna round: R97, puzzle: Exclusion 3) | 23.3 nM |  | 24.6 nM |  |  | 
12 | AACUAGUCAGGAUAUACAUGAGGAUCACCCAUGUAAACUUUUAGUUUAAUUUGAAUGUGUAGAAGGGACAUAAA [Ex3 #43] (Eterna round: R97, puzzle: Exclusion 3) | 20.7 nM |  | 20.3 nM |  |  | 
13 | AACUAGUGAGGAUAUACAUGAGGAUCACCCAUGUACGUCGUGGGUAGAAAACAAGUCAGUAGAAGGUGCUAGAC [Ininor] (puzzle: Exclusion 3) |  |  |  |  | 174 nM | 
14 | AACUCACAUGAGGAUCACCCAUGUGAGGAUAUGAUACUAUGUACUUCGGUACAUAGUAUCAGAAGGCAUGUGGG [Ex1-3: 94] (puzzle: Exclusion 1) |  |  |  |  | 49.7 nM | 
15 | AACUGUACAGGAUAUACAUGAGGAUCACCCAUGUGAGAAUUAAGUGGAGAACCACAAAGUAGAAGGGUACAGGA [Mat - Exclusion 3 - JL mod - D17] (Eterna round: R96, puzzle: Exclusion 3) |  | 38.4 nM |  |  |  | 
16 | AACUGUCUAGAGGAUAUGCUGGAUUAAUAUCUGGCAGAAGGUUGGACAUGAGGAUCACCCAUGUAAAUACUACC [Omei Ex6 A7] (Eterna round: R97, puzzle: Exclusion 6) | 33.1 nM |  | 20.3 nM |  |  | 
17 | AACUUCUGAGGAUAUACAUAGAUUUACAUGAGGAUCACCCAUGUUCCUCUAUGUAUAAAUGUAGAAGGCAGAAGAG [Mat - Exclusion 5 - JL Mod - D63] (Eterna round: R97, puzzle: Exclusion 5) | 71.3 nM |  | 17.2 nM |  |  | 
18 | AAGAAACAUGAGGAUCACCCAUGUGAGGAUAUGAAAAAGAAAAGAAAAGAAAGAAGAAUCAGAAGGCACAAAGC [salish99-ex1_r3_090] (Eterna round: R96, puzzle: Exclusion 1) | 24 nM | 25.3 nM | 31.2 nM |  |  | 
19 | AAGAAACAUGAGGAUCACCCAUGUGAGGAUAUGAAAAAGAAAAGAAAAGAAAGAAGAAUCAGAAGGCACAAAGC [salish99-ex1_r3_090] (puzzle: Exclusion 1) |  |  |  | 22.5 nM | 28.6 nM | 32.1 nM
20 | AAGAAACAUGAGGAUCACCCAUGUGAGGAUAUGAAAAAUAAAAGAAAAGAAAUAAUAAUCAGAAGGCACAAAGG [Mat - Mod of Hog D9] (puzzle: Exclusion 1) |  |  |  | 43 nM | 26.6 nM | 28.9 nM
21 | AAGAAACAUGAGGAUCACCCAUGUGAGGAUAUGAAAAAUAAAAUAAAAUAAAUAAUAAUCAGAAGGCACAAAGG [Mat - Mod of Hog D7] (puzzle: Exclusion 1) |  |  |  | 37.3 nM | 34.1 nM | 42 nM
22 | AAGAAACAUGAGGAUCACCCAUGUGAGGAUAUGACGAAGAAAAGAAAAGAAAGAAGACUCAGAAGGCACAAAGG [salish99-ex1_r3_076] (puzzle: Exclusion 1) |  |  |  | 48 nM | 26.7 nM | 43.4 nM
23 | AAGAAACAUGAGGAUCACCCAUGUGAGGAUAUGAUCAAGAAAAGAAAAGAAAGAAGACUCAGAAGGCACAAAGG [salish99-ex1_r3_071] (puzzle: Exclusion 1) |  |  |  | 162 nM | 210 nM | 548 nM
24 | AAGAAACAUGAGGAUCACCCAUGUGAGGAUAUGAUCAAGAAAAGAAAAGAAAGAAGAUUCAGAAGGCACAAAGG [salish99-ex1_r3_056] (puzzle: Exclusion 1) |  |  |  | 124 nM | 160 nM | 362 nM
25 | AAGACAAUUCUCUAGUGCAACAUGAGGAUCACCCAUGUCAUAGAAGCUUUUUGCUCGUGUUAAGUGACUCAAGAGAG [Eternabot (Original) Solution 41] (Eterna round: R97, puzzle: Sensor, turn-off variant 1) | 69.6 nM |  | 64.2 nM |  |  | 
26 | AAGACUAGAGGAUAUACAUGAGGAUCACCCAUGUAACUGUCAGGUGACUGACGGAAAUGUAGAAGGCUAGUCAA [Mat - Exclusion 3 - JL mod - D81] (Eterna round: R96, puzzle: Exclusion 3) | 54.2 nM | 13.6 nM | 16.8 nM |  |  | 
27 | AAGAGGAAUAUAGGAUAUGAGGCUGAGACGGCGUCAGAAGGGUAUCCAGAGUUACAUGAGGAUCACCCAUGUGGUGAUUUCUAA [Exclusion NG 1 V2 1] (Eterna round: R96, puzzle: Exclusion NG 1) | 9.2 nM | 5.74 nM | 81.2 nM |  |  | 
28 | AAGAGGCGGACAGGAUAUGGGAAAUUGUAAAGACCAGAAGGGUCGGCGAAAAUACAUGAGGAUCACCCAUGUGACUCAUGACCA [AK ExNG1-7.1] (Eterna round: R96, puzzle: Exclusion NG 1) | 913 nM | 311 nM | 290 nM |  |  | 
29 | AAGAUGAGACAGGAUAUCCACAAAAUCUUGUCAGGAGAAGGGUCUACAUGAGGAUCACCCAUGUGAUUCUUGAA [Inriinvele] (puzzle: Exclusion 6) |  |  |  | 19.1 nM | 14.6 nM | 18.1 nM
30 | AAGAUGUCAGGAUAUUAGUAGUAAAUGAAUAAAAUUAUUACUGAGAAGGGACAUGAGGAUCACCCAUGUGCCUU [Mat - Exclusion 4 - Eli Mod - D10] (Eterna round: R97, puzzle: Exclusion 4) | 17.5 nM |  | 16.6 nM |  |  | 
